Measurements from patent US20190201500A1 (ONL THERAPEUTICS, published 2019).
No end group written: not given here.

T1: Fas receptor on 661W photoreceptor cells (UniProt P25446 22-327, limits assumed)
T1 sequence (looked up): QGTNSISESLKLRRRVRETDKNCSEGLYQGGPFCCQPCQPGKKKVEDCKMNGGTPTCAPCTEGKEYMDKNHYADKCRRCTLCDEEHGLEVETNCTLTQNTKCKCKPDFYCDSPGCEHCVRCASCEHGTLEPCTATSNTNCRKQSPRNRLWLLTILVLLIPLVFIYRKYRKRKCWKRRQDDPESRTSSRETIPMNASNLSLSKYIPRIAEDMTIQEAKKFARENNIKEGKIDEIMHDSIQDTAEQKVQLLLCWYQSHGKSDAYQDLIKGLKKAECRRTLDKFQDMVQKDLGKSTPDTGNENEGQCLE


Biological target: T1, Fas receptor on 661W photoreceptor cells
Assay: cell-based or functional assay

Row | caspase 8 activity in 661W cell lysates (dose of peak activity) | increase of caspase 8 activity in 661W cells | EC50, inhibition of FasL-induced caspase 8 activation in 661W cells | fold potency against Met-12 by IC50 determination | fold potency against Met-12 by the concentration of maximal inhibition | Molecule
1 | 500 ng/mL | 20 to 30% | – | – | – | human recombinant FasL (from UniProt P48023 134-281) (ligand)
2 | – | – | 0.4 µM | 10 fold | ~3 fold | HHIYLGAVNYIY-NH2 (also: trihydrochloride salt) [Compound 1 (His-His-Ile-Tyr-Leu-Gly-Ala-Val-Asn-Tyr-Ile-Tyr-NH2), C-terminal amide of Met-12]
3 | – | – | 4 µM | – | – | HHIYLGAVNYIY (also: trihydrochloride salt) [Met-12 (HHIYLGAVNYIY)]
